The record followed here is patent US20180217151A1.

Test [1] addresses CD45RA antigen on human PBMCs (human) (UniProt P08575). Nature of the test: flow cytometry, human PBMCs, biotinylated Fab 1 µg/mL, SA-APC, after five washing steps; enables reversible labeling: yes. (In flow cytometry, cells or beads pass a laser one at a time.)
Test [2] shares this target. Briefly: flow cytometry, human PBMCs, biotinylated Fab 1 µg/mL, SA-APC, before washing; median of control (background) 0.1.
Test [3] shares this target. Nature of the test: flow cytometry, human PBMCs, biotinylated Fab 1 µg/mL, SA-APC, after five washing steps; median of control (background) 0.1; enables reversible labeling: yes.
Test [4] concerns the target CD19 antigen on human PBMCs (human) (UniProt P15391). Briefly: flow cytometry, human PBMCs, biotinylated Fab 1 µg/mL, SA-APC, after five washing steps; enables reversible labeling: yes.
Test [5] has the same target. Briefly: flow cytometry on human PBMCs, SA-APC median after five washing steps; background 0.2.
In test [6] the target is recombinant CD19 antigen (not stated (the Fab labels human PBMCs)) (UniProt P15391). Briefly: SPR (Biacore), recombinant antigen (extracellular domain) immobilized by amine coupling, Fab as analyte, 1:1 binding mass transfer model. For orientation: Surface plasmon resonance follows binding to a sensor surface in real time, without labels.
recombinant CD19 antigen (not stated (the Fab labels human PBMCs)), sequence (P15391 20-291): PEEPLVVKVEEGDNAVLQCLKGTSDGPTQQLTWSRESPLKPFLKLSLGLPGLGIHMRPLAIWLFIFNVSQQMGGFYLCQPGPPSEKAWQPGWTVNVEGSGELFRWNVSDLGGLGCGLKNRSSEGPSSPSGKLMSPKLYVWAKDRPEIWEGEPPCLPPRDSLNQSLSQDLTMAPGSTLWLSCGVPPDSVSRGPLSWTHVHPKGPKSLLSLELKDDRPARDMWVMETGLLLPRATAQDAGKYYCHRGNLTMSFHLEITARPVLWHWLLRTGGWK
Test [7] deals with CD19 antigen on human PBMCs (human) (UniProt P15391). Briefly: flow cytometry, human PBMCs, biotinylated Fab 1 µg/mL, SA-APC, before washing; median of control (background) 0.25.
CD19 antigen on human PBMCs (human), sequence (P15391 20-556): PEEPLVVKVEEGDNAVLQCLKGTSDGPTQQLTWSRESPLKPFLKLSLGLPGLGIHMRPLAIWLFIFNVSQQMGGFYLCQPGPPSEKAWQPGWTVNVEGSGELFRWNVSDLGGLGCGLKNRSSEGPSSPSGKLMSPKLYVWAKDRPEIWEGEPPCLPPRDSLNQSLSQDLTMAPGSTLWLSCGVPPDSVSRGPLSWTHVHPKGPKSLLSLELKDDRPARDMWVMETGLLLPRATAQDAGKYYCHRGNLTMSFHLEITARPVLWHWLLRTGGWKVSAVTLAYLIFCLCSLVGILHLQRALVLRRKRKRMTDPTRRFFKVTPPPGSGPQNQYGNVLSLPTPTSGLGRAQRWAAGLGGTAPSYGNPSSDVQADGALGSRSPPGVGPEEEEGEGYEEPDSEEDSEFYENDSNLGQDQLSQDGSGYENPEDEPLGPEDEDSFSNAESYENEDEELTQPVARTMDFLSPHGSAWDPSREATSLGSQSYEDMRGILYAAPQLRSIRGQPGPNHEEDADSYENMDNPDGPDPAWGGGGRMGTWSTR
Test [8] has as its target CD8 antigen on human PBMCs (human) (UniProt P01732). Briefly: flow cytometry, human PBMCs, biotinylated Fab 1 µg/mL, SA-APC, after five washing steps; median of control (background) 0.1; enables reversible labeling: no.
Test [9] has the same target. Briefly: flow cytometry, human PBMCs, biotinylated Fab 1 µg/mL, SA-APC, after five washing steps; enables reversible labeling: no.
The target is the same in test [10]. Nature of the test: flow cytometry, human PBMCs, biotinylated Fab 1 µg/mL, SA-APC, before washing; median of control (background) 0.1.
In test [11] the target is recombinant CD8 antigen (not stated (the Fab labels human PBMCs)). Nature of the test: SPR (Biacore), recombinant antigen (extracellular domain) immobilized by amine coupling, Fab as analyte, 1:1 binding mass transfer model.
recombinant CD8 antigen (not stated (the Fab labels human PBMCs)), sequence (P01732 22-182): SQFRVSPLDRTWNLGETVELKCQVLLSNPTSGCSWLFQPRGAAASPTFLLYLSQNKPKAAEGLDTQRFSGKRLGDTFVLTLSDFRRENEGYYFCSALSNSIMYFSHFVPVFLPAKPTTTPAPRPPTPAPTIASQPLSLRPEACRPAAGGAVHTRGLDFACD

CD8 antigen on human PBMCs (human), sequence (P01732 22-235): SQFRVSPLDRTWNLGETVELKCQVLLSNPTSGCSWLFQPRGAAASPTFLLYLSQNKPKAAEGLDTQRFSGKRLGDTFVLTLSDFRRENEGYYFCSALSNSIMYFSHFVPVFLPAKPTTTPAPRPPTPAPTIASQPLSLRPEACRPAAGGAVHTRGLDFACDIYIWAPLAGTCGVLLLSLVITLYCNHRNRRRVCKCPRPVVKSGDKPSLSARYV

B1: MEM56-LAV rFab (Fab, V domains shown)
VH: QVQLQQSGAELAKPGASVKMSCKASGYNFTRYWMHWIKQRPGQGLEWIGYINPNTGHTEYNQKFKDKATLTADKSSSTAYMQLSSLTSEDSAVYYCATYYYGSRRDAGQGTTLTVSS
VL: QIVLTQSPAIMSASLGERVTMTCTTSSSVSSSYLHWYQQKPGSSPKLWIYSTSNLASGVPARFSGSGSGTSYSLTISTVEAEDAATYYCHQYHRSPLTFGAGTKLELKR
modifications: In the cell assay the Fab was biotinylated with a thiol-reactive reagent (e.g. maleimide-PEO2-biotin) on cysteines of the reduced disulfide bridge; positions not stated.
For B1, the % median value of the detected label after Fab removal (before = 100%) in test [1] is 6.9%. For the same molecule, in test [2], the median value (i) turned out to be 2.9. The same molecule yielded a median value after Fab removal (ii) in [3] of 0.2.

B2: SJ25-C1 pFab (Fab, from another filing, V domains shown)
VH: EVKLQQSGAELVRPGSSVKISCKASGYAFSSYWMNWVKQRPGQGLEWIGQIYPGDGDTNYNGKFKGQATLTADKSSSTAYMQLSGLTSEDSAVYFCARKTISSVVDFYFDYWGQGTTVTVSS
VL: DIELTQSPKFMSTSVGDRVSVTCKASQNVGTNVAWYQQKPGQSPKPLIYSATYRNSGVPDRFTGSGSGTDFTLTITNVQSKDLADYFCQQYNRYPYTSGGGTKLEI
B2 yielded a % median value of the detected label after Fab removal (before = 100%) in test [4] of 4.4%. Further, the median of remaining detectable label after removal of Fab in test [5] turned out to be 1.2. In addition, in test [6], the Kd (as a rule, the free concentration of one partner at which half of the binding sites on the other are occupied at equilibrium, for simple one-to-one binding) was 7 nM; the koff (in general, a measure of how fast the partners let go of each other) was found to be 0.0031 s⁻¹; the kon (in general, the second-order rate constant of association) is 440000 M⁻¹ s⁻¹. The same molecule returned a median value (i) in test [7] of 27.

B3: OKT8 pFab (Fab, from another filing, V domains shown)
VH: EVQLQQSGAELVKPGASVKLSCTASGFNIKDTYIHFVRQRPEQGLEWIGRIDPANDNTLYASKFQGKATITADTSSNTAYMHLCSLTSGDTAVYYCGRGYGYYVFDHWGQGTTLTVSS
VL: DVQINQSPSFLAASPGETITINCRTSRSISQYLAWYQEKPGKTNKLLIYSGSTLQSGIPSRFSGSGSGTDFTLTISGLEPEDFAMYYCQQHNENPLTFGAGTKLELK
In turn, B3 registered a median value after Fab removal (ii) in test [8] of 23. In addition, in test [9], the % median value of the detected label after Fab removal (before = 100%) is 51%. The median value (i) in [10] is 45. Also, in test [11], the Kd stood at 0.62 nM, the koff amounted to 0.0013 s⁻¹ and the kon came out at 2.1e+06 M⁻¹ s⁻¹.
